The values that follow come from publication PMC10269693.

For the series, the system named is CN[C@@H]1[C@H](O)[C@H](NC)[C@H]2O[C@@]3(O)C(=O)C[C@@H](C)O[C@H]3O[C@@H]2[C@H]1O. The series can be described thus: purified protein. To be noted: 5 mM ATP, 10 mM MgCl2, 50 mM HEPES pH 7.5, 37°C.

As usually defined, the Km is the concentration of substrate that gives half-maximal velocity. By kcat is commonly meant the number of substrate molecules converted per active site and unit of time at saturation. For orientation: kcat/Km means the turnover number divided by the Michaelis constant. For the substance ANT(9)-Ib (Enterococcus faecalis), the Km was 33.56 ± 8.1 µM, the kcat came out at 2.6 ± 0.2 s⁻¹ and the kcat/Km was 83000 ± 21000 M⁻¹ s⁻¹.
